Measured values taken from US20110275122A1 (Amgen, published 2011).

T1: c-mpl receptor (Homo sapiens (Human), UniProt P40238 26-491, The MPL used for panning was biotinylated; the biotin site is not stated and is not carried by the letters.)
T1 construct: also called TPO receptor
T1 sequence: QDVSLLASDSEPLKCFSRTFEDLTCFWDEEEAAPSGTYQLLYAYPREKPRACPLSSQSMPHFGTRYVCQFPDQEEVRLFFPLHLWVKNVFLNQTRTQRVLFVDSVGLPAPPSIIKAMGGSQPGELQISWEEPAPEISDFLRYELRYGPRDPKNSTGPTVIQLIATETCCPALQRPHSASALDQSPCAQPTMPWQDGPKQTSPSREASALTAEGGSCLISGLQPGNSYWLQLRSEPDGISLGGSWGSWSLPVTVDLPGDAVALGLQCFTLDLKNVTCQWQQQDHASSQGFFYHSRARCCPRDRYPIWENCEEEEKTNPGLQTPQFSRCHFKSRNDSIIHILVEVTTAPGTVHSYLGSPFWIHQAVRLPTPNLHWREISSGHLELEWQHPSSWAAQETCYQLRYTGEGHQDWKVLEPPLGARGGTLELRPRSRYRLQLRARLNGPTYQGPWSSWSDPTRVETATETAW

B1: SEQ ID NO: 246 (peptide)
peptide: IEGQSWEFENDRVPAHSLERVLLLRRVPTEPSGPSICAQIEGPTFKQWQECINGHS
B2: SEQ ID NO: 254 (peptide)
peptide: IEGRWPPPQFPVTEHHSLERVGRRPPNAQMPQSIFICGQNEGPTFQYCQRCLREHS
B3: SEQ ID NO: 249 (peptide)
peptide: IEGEPVSDGKRRPRVHSLERVDAVHAKVGPSICAQIEGPTFKQWQKCKRAHS
B4: SEQ ID NO: 257 (peptide)
peptide: IEGYVGGPYEQTNSLERVPPTLAWKYGPRTPSICAQIEGPTFKQWQQCLSDHS
B5: SEQ ID NO: 250 (peptide)
peptide: IEGRWPPPQFPVTQQHSLERVGRPPPSVELPRPTFVCAQIEGPTFKQWQRCLREHS
B6: SEQ ID NO: 284 (peptide)
peptide: IEGHGSQKPTAARALESTSSLTTRTRTTSICAQQDMVGPTIRQWLAARACI

These binders were tested against T1, c-mpl receptor (assay: phage-ELISA).

**Q.** With IEGPTFEQWQHWRRGHS [SEQ ID NO: 285] as the binder, how does the Relative activity read?
**A.** 91.5

**Q.** For IEGWTWQFYALPRGDHS [SEQ ID NO: 297], which Relative activity is on record?
**A.** 63.2

**Q.** IEGWPRQLYAHAKEDHS [SEQ ID NO: 280] was tested. Which Relative activity did it give?
**A.** 95.6

**Q.** IEGEALVFWWAARA [SEQ ID NO: 307] was tested. Which Relative activity did it give?
**A.** 40.3

**Q.** For IEGPTFKQWQAWRRWHS [SEQ ID NO: 315], which Relative activity is on record?
**A.** 28.1

**Q.** How did the Relative activity turn out when IEGPTLHEWLRWLRQHS [SEQ ID NO: 291] was run?
**A.** 78.3

**Q.** IEGRTWQLYFHAKEEHS [SEQ ID NO: 278] was tested. Which Relative activity did it give?
**A.** 102

**Q.** With IEGPTFKQWQKCRNMHS [SEQ ID NO: 247] as the binder, how does the Relative activity read?
**A.** 164

**Q.** Which Relative activity does the source give for PSICAQIEGPTFKQWQTCMRAHS [SEQ ID NO: 256] here?
**A.** 133

**Q.** Which Relative activity does the source give for IEGPTFKQWQAARMHHS [SEQ ID NO: 265] here?
**A.** 122

**Q.** IEGPTFKQWQKLRRVHS [SEQ ID NO: 248] was tested. Which Relative activity did it give?
**A.** 155

**Q.** For IEGPTFKQWQKLRRSHS [SEQ ID NO: 261], which Relative activity is on record?
**A.** 125

**Q.** IEGWTWQFYVHPKGDHS [SEQ ID NO: 264] was tested. Which Relative activity did it give?
**A.** 122

**Q.** Which Relative activity does the source give for IEGWTRRQWLAARA [SEQ ID NO: 311] here?
**A.** 33.3

**Q.** IEGPTFKQWQAWRKKHS [SEQ ID NO: 252] was tested. Which Relative activity did it give?
**A.** 146

**Q.** Which Relative activity does the source give for IEGWWWQFYAHPQGDHS [SEQ ID NO: 281] here?
**A.** 95

**Q.** Which Relative activity does the source give for IEGWSWQFYAHPKGDHS [SEQ ID NO: 300] here?
**A.** 52.6

**Q.** For IEGWTWQFYAHPQGDHS [SEQ ID NO: 317], which Relative activity is on record?
**A.** 24.2

**Q.** With IEGWPWQFYAHPQGDHS [SEQ ID NO: 289] as the binder, how does the Relative activity read?
**A.** 80.3

**Q.** For IEGPSFTPWFHERRSHS [SEQ ID NO: 268], which Relative activity is on record?
**A.** 110

**Q.** How did the Relative activity turn out when IEGPTFKQWQVRQKTHS [SEQ ID NO: 276] was run?
**A.** 105

**Q.** How did the Relative activity turn out when B1 was run?
**A.** 173

**Q.** For IEGWWWQLYFHAKDDHS [SEQ ID NO: 260], which Relative activity is on record?
**A.** 126

**Q.** How did the Relative activity turn out when IEGPTFKQWQVWRNRHS [SEQ ID NO: 271] was run?
**A.** 108

**Q.** How did the Relative activity turn out when IEGPTFKQWQGRSKRHS [SEQ ID NO: 258] was run?
**A.** 131

**Q.** For B2, which Relative activity is on record?
**A.** 137

**Q.** How did the Relative activity turn out when IEGWSWQFYFHAKGDHS [SEQ ID NO: 277] was run?
**A.** 104

**Q.** Which Relative activity does the source give for IEGWNPWRGAASRV [SEQ ID NO: 310] here?
**A.** 33.9

**Q.** Which Relative activity does the source give for IEGQSWLRRLHWKEEHS [SEQ ID NO: 272] here?
**A.** 108

**Q.** For IEGPTFKQWQYWRAKHS [SEQ ID NO: 275], which Relative activity is on record?
**A.** 105

**Q.** How did the Relative activity turn out when IEGWPWQLYVHPEGEHS [SEQ ID NO: 259] was run?
**A.** 129

**Q.** IEGPTFKQWQWLRRHHS [SEQ ID NO: 269] was tested. Which Relative activity did it give?
**A.** 109

**Q.** Which Relative activity does the source give for IEGPTFKQWQMLRRHHS [SEQ ID NO: 328] here?
**A.** 12.5

**Q.** For IEGPTFKQWQAMRRHS [SEQ ID NO: 313], which Relative activity is on record?
**A.** 28.4

**Q.** IEGSYRERQQAARA [SEQ ID NO: 308] was tested. Which Relative activity did it give?
**A.** 35.2

**Q.** For IEGRHYQKWPARRLGHS [SEQ ID NO: 302], which Relative activity is on record?
**A.** 52

**Q.** With IEGMVKLGVIRLLVL [SEQ ID NO: 314] as the binder, how does the Relative activity read?
**A.** 28.3

**Q.** How did the Relative activity turn out when IEGWIWRQWLAARA [SEQ ID NO: 286] was run?
**A.** 91.4

**Q.** For IEGWIWRPWLAARA [SEQ ID NO: 287], which Relative activity is on record?
**A.** 83.3

**Q.** How did the Relative activity turn out when IEGWVWCQWLAARA [SEQ ID NO: 290] was run?
**A.** 79.1

**Q.** Which Relative activity does the source give for IEGWVWRQWLAARA [SEQ ID NO: 301] here?
**A.** 52.1

**Q.** Which Relative activity does the source give for IEGWVWWPWLAARA [SEQ ID NO: 296] here?
**A.** 63.5

**Q.** For IEGPTFKQWQKSRTKHS [SEQ ID NO: 263], which Relative activity is on record?
**A.** 124

**Q.** Which Relative activity does the source give for IAQVRMLGRFTLLVLSRARAASTQLSFQHSICAQIEGGAQTQWDAARA [SEQ ID NO: 305] here?
**A.** 47.4

**Q.** For IEGQEPTRLRLQMDRHS [SEQ ID NO: 304], which Relative activity is on record?
**A.** 48.3

**Q.** With IEGWWWQFYVHAKGDHS [SEQ ID NO: 270] as the binder, how does the Relative activity read?
**A.** 109

**Q.** IEGFVGTVDWRQGRPHS [SEQ ID NO: 303] was tested. Which Relative activity did it give?
**A.** 49.8

**Q.** How did the Relative activity turn out when IEGEIWAGPGAARA [SEQ ID NO: 306] was run?
**A.** 46.5

**Q.** With IEGPTFKQWQACLHSHS [SEQ ID NO: 266] as the binder, how does the Relative activity read?
**A.** 114

**Q.** How did the Relative activity turn out when B3 was run?
**A.** 150

**Q.** IEGPTFKQWQRWRLLHS [SEQ ID NO: 251] was tested. Which Relative activity did it give?
**A.** 149

**Q.** For IEGPTFKQWQRWRKMHS [SEQ ID NO: 253], which Relative activity is on record?
**A.** 144

**Q.** With B4 as the binder, how does the Relative activity read?
**A.** 131

**Q.** B5 was tested. Which Relative activity did it give?
**A.** 149

**Q.** How did the Relative activity turn out when IEGPTLRQRLAARA [SEQ ID NO: 299] was run?
**A.** 57.3

**Q.** IEGPTLRQWLAARA (Positive control of the phage-ELISA) [IEGPTLRQWLAARA (positive control)] was tested. Which Relative activity did it give?
**A.** 150

**Q.** For B6, which Relative activity is on record?
**A.** 92.1

**Q.** Which Relative activity does the source give for IEGPTFKQWQKWRKTHS [SEQ ID NO: 274] here?
**A.** 105

**Q.** With IEGEALVFWWRVRGGHS [SEQ ID NO: 294] as the binder, how does the Relative activity read?
**A.** 73.9

**Q.** How did the Relative activity turn out when IEGWWWQFYFHAKEDHS [SEQ ID NO: 255] was run?
**A.** 136

**Q.** IEGWWWQFYFHPKEDHS [SEQ ID NO: 262] was tested. Which Relative activity did it give?
**A.** 124

**Q.** For IEGYWWYASWAARA [SEQ ID NO: 288], which Relative activity is on record?
**A.** 80.4
